# Results as given in patent publication US6344436.
# Molecular target: LDL receptor (UniProt P01130)
# Experiment: cell-based or functional assay
# LDL receptor, sequence (P01130 22-860 limits assumed): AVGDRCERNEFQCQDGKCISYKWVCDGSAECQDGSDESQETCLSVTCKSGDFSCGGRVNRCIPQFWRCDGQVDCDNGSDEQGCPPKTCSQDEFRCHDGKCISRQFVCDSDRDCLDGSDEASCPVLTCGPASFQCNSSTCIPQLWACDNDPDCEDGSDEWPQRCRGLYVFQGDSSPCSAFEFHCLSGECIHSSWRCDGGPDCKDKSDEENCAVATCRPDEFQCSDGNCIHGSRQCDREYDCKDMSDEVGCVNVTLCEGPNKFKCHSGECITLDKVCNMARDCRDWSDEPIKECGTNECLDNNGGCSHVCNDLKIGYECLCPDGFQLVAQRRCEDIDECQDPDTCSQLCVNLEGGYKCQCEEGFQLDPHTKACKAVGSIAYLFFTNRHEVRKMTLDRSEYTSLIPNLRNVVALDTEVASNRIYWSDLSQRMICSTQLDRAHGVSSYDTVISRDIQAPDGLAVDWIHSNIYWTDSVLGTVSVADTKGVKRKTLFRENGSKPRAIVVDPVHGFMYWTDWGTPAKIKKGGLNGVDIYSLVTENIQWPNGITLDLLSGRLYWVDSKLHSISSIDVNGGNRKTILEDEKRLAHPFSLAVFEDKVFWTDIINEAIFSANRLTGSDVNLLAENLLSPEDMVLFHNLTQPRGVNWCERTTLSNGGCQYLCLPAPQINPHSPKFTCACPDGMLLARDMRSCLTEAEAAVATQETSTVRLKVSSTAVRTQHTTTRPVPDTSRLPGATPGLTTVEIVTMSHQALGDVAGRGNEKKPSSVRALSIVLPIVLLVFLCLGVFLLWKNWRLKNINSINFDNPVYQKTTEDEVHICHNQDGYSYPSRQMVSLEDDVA
substance,measurement,value
distearyl-glycyl-apoE-3^129-169(Q142) (peptide),"expression (transfection of 293 epithelial cells with peptide:DNA complexes), relative to wild-type apoE peptide complexes (% of wild-type apoE peptide complexes)",5
